Square brackets hold non-standard residues; d marks the D form. Ends that are not written are not given here. hArg = N=C(N)NCCCC[C@H](N)C(=O)O; Nle = CCCC[C@H](N)C(=O)O; Aib = CC(C)(N)C(=O)O
Experiments:
[1] = target: T1, human parathyroid hormone receptor (PTHR) (human, UniProt Q03431 27-593); assay: cell-based or functional assay
T1 sequence: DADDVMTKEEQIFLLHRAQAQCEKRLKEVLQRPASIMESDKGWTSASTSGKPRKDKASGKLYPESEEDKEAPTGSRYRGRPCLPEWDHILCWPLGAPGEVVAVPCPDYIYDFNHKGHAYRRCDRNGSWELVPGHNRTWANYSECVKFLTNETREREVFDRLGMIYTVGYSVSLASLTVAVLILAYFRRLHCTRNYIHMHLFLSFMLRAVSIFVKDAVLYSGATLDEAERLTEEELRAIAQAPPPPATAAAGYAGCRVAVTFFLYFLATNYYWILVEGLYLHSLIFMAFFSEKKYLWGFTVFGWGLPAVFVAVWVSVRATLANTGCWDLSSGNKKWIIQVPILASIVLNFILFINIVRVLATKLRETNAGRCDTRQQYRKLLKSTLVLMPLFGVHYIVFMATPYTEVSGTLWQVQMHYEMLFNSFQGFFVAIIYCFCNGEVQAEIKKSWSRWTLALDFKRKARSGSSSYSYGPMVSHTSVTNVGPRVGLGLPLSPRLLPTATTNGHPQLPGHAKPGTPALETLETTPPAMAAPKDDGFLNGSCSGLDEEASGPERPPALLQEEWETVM

[2] = target: T1, human parathyroid hormone receptor …; assay: ratio of R0 IC50 to RG IC50, hPTHR
[3] = target: T2, rat parathyroid hormone receptor (PTHR) (rat, UniProt P25961 27-591); assay: competition radioligand binding, rat PIR R0
T2 construct: Endogenous in ROS17/2.8 cells (membranes or intact cells); also called rat PTHR; rat PIR
T2 sequence: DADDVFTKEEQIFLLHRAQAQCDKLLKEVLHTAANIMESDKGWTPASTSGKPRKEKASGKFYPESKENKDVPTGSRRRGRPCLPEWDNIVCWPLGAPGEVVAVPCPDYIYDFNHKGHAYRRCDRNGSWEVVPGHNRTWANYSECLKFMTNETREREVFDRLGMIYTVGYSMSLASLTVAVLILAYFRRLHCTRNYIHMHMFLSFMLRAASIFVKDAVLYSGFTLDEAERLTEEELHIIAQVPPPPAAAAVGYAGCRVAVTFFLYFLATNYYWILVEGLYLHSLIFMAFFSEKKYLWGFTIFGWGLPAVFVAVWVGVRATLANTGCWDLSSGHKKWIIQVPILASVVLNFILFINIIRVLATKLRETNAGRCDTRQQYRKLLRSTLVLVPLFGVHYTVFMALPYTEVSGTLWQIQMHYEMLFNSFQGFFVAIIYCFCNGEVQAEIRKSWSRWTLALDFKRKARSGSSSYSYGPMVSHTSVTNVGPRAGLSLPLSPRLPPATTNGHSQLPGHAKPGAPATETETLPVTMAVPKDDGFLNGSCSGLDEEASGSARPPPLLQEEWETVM

[4] = target: T2, rat parathyroid hormone receptor (PTHR); assay: competition radioligand binding, rat PIR RG
[5] = target: T1, human parathyroid hormone receptor …; assay: competition radioligand binding, human PIR R0
Procedure: (§1) Binding Studies. Binding studies were performed using cell membranes as described (Dean et al., Mol Endocrinol 20(4):931-43 (2006)). […] Reactions contained a total membrane protein concentration of 20 to 100 μg/mL, and a total radioactivity concentration of approximately 150,000 cpm/ml. Unlabeled peptide ligands and/or GTPγS (Sigma-Aldrich Inc. St. Louis, Mo.) were added to the reactions as indicated. At the end of the reaction, bound and free radioligand were separated by vacuum filtration using a 96-well vacuum filter plate and vacuum filter apparatus (Multi-Screen system with Durapore HV, […] filters; Millipore Corp., Milford, Mass.); the air-dried filters were then detached from the plate and counted for gamma radioactivity using a gamma counter.
(§2) To assess the capacities of various unlabeled peptide ligands to bind to the G protein-uncoupled and G protein-coupled PTHR conformations (R⁰ and RG, respectively), membranes were prepared from transiently transfected COS-7 cells and the following assay conditions.

[6] = target: T1, human parathyroid hormone receptor …; assay: competition radioligand binding, human PIR RG
Procedure: as §1, §2

[7] = target: T1, human parathyroid hormone receptor …; assay: competition radioligand binding, hPTHR R0 conformation
Procedure: as §1, §2

[8] = target: T1, human parathyroid hormone receptor …; assay: competition radioligand binding, hPTHR RG conformation
Procedure: as §1, §2

[9] = target: T2, rat parathyroid hormone receptor (PTHR); assay: near-equilibrium radioligand binding, ROS17/2.8 membranes
[10] = target: PTHR-CFPIC3/YFPCT (human); assay: cell-based or functional assay
[11] = target: T1, human parathyroid hormone receptor …; assay: ratio of R0 IC50 to RG IC50, human PTH1 receptor
[12] = target: T1, human parathyroid hormone receptor …; assay: competition radioligand binding, human PTH1 receptor R0
Procedure: as §1, §2

[13] = target: T1, human parathyroid hormone receptor …; assay: competition radioligand binding, human PTH1 receptor RG
Procedure: as §1, §2

B1: A18,22,L25,K26-PTHrP(1-28)NH (peptide)
peptide: AVSEHQLLHDKGKSIQDARRRAFLLKLI-NH2
modifications: not fully specified
notes: also called [Ala^18,22,Leu^25,Lys^26]-PTHrP(1-28); AALK-PTHrP(1-28)
In the case of B1, the “cAMP in HKRK-B7 cells, EC50” value [1] is reported as 0.52 nM, the “cAMP in HKRK-B7 cells, Max” value [1] is reported as 56.4 pm/well and the R0/RG selectivity [2] is reported as 6970. For the same binder, the IC50 [3] was 34.9 nM, the IC50 [4] was 0.16 nM and the IC50 [5] was 310 nM. For the same binder, the IC50 [6] was 0.04 nM, the IC50 [7] was 310 nM and the IC50 [8] was 0.04 nM.

[Aib]V[Aib]EIQL[Nle]HQ[hArg]AKWY-NH2 (also: 125I label, site not given here, Radioligand; tracer of the RG assay) [^125I-[Aib^1,3,M]PTH(1-15)NH2]: binds [9].

In the case of AVSEIQLLHDKGKSIQDLRRRFFLHHLIAEIHTAEY-NH2 [[Ile^5,Tyr^36]hPTHrP(1-36)NH2], the “t1/2 of the FRET response” value [10] is reported as 0.5 to 0.7 s.

AVSEIQLLHDKGKSIQDLRRRFFLHHLIAEIHTAEY-NH2 (also: 125I label, site not given here, Radioligand) [^125I-[Ile^5,Tyr^36]PTHrP(1-36)NH2]: binds [9].

AVSEHQLLHDKGKSIQDERRRAFLLKLIAE-NH2 (also called EALK-PTHrP(1-30)) [E18,A22,L25,K26-PTHrP(1-30)NH] was tested, and the R0/RG selectivity [2] was 11200, the IC50 [3] was 76.3 nM and the IC50 [4] was 0.21 nM. The IC50 [5] was 945 nM, the IC50 [6] was 0.08 nM and the R0/RG ratio [11] was 11800. The IC50 [7] was 945 nM, the IC50 [8] was 0.08 nM and the IC50 [12] was 945 nM. For the same binder, the IC50 [13] was 0.08 nM.

With AVSEHQLLHDKGKSIQDERRRAFLHHKIAEI-NH2 (Name as printed (K27)) [E18,A22,K27-PTHrP(1-31)NH] the IC50 [3] was 54.8 nM and the IC50 [4] was 0.23 nM.

B2: [Aib^1,3,Gln^10,Har^11,Ala^12,Trp^14]rPTH(1-14)NH2 (peptide)
peptide: [Aib]V[Aib]EIQLMHQ[hArg]AKW-NH2
modifications: N-terminus assumed
SMILES: CC[C@H](C)[C@H](NC(=O)[C@H](CCC(=O)O)NC(=O)C(C)(C)NC(=O)[C@@H](NC(=O)C(C)(C)N)C(C)C)C(=O)N[C@@H](CCC(N)=O)C(=O)N[C@@H](CC(C)C)C(=O)N[C@@H](CCSC)C(=O)N[C@@H](Cc1c[nH]cn1)C(=O)N[C@@H](CCC(N)=O)C(=O)N[C@@H](CCCCNC(=N)N)C(=O)N[C@@H](C)C(=O)N[C@@H](CCCCN)C(=O)N[C@@H](Cc1c[nH]c2ccccc12)C(N)=O
For B2, the “t1/2 of the FRET response” value [10] was 0.5 s.

SVSEIQLMHNLGKHLNSMERVEWLRKKLQDVHNF [hPTH(1-34)] was tested, and the “t1/2 of the reduction in FRET signal” value [10] was 0.7 s.

B3: ^125I-[Nle^8,21,Tyr^34]rPTH(1-34)NH2 (peptide)
peptide: AVSEIQLXHNLGKHLASVERXQWLRKKLQDVHNY
modifications: 125I label (oxidative chloramine-T procedure); Nle at 8 and 21; C-terminal amide
notes: Radioligand; tracer of the R0 assay
B3: binds [9].

From patent publication US20110172153A1 (GENERAL HOSPITAL, published 2011)
